Measured values: US20050054012, “Methods of detecting and treating facioscapulohumeral muscular dystrophy” (published 2005)

Legend:
GST-YY1 [1] = molecular target: T1, GST-YY1 (UniProt P25490 P25490:1-414); assay: EMSA; 50 mM KCl, pH 8, poly(dI-dC), on ice; details: tags: GST fusion, expressed in E. coli; label: 32P end
Procedure: (§1) The Kpnl-D4Z4 unit plasmid, used to generate EMSA probes for the experiments shown in FIGS. 2A-2C, was kindly provided by L. Felicetti. For the EMSA experiments shown in FIG. 4, oligonucleotide probes were prepared by end-labeling double-stranded oligonucleotides covering the region of the minimal binding site. The sequences of the oligonucleotides were as follows: WT, 5′-[…]-3′ (SEQ ID NO:1); MUT, 5′-CTCACCGCCgcc[…]-3′ (SEQ ID NO:2) (mutated nucleotides are shown in italics). DNA binding reactions were carried out in 20 μl of 10 mM HEPES (pH 8), 10% glycerol, 50 mM KCl, 0.1 mM EDTA, 0.25 mM DTT, 0.1 mg/ml poly (dl-dC), 0.1 mg/ml bovine serum albumin, 20,000 cpm of radiolabeled probe. The samples were incubated for 30 minutes on ice in the presence of the indicated nuclear extract or protein fraction. For competition assays, unlabeled probes were added to the reaction mixture at the same time as the labeled probe. For supershift assays, a binding reaction was assembled in the absence of radiolabeled probe. Antibodies were added to the binding reaction and the samples were incubated 15 minutes at room temperature. Radiolabled probe was added and the samples were incubated for additional 30 minutes on ice. Reaction mixtures were loaded in the cold room onto 6% native polyacrylamide gels containing 0.5×Tris-borate-EDTA (TBE) that had been preelectrophoresed for 30 minutes at 20 mA. […]

GST = GST (UniProt P08515 P08515:2-218); assay: EMSA; GST alone control; details: tags: GST alone, label: 32P end
Procedure: as §1

GST-YY1 [2] = molecular target: T1, GST-YY1; assay: EMSA; YY1 core mutated; details: tags: GST fusion, expressed in E. coli; label: 32P end
Procedure: as §1

T1 sequence (P25490 whole entry, the tested form may be a part, one chain of several): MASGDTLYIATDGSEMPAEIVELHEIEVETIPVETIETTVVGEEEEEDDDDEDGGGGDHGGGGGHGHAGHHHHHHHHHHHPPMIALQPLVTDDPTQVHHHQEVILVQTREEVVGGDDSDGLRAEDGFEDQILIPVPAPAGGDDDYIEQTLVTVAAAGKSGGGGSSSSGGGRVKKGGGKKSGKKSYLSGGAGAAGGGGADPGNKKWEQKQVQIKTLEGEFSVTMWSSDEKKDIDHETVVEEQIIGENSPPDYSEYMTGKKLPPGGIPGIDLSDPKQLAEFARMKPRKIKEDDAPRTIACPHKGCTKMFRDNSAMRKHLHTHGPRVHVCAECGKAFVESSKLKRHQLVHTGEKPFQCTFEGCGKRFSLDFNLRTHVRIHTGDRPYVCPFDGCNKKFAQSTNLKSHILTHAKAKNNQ
Chain of GST (P08515 2-218, one chain of several): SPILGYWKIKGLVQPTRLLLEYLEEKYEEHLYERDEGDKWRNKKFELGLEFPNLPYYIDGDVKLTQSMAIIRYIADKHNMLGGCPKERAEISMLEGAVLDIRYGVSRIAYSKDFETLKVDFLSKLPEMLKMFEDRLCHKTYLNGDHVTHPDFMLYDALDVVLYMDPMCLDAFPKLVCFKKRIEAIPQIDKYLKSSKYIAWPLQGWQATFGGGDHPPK

B1: DBE WT probe (dsDNA)
DNA 1: CTCACCGCCATTCATGAAGGGGTGGAGCCTGCCTG
DNA 2: CAGGCAGGCTCCACCCCTTCATGAATGGCGGTGAG
GST-YY1 [1]
  binding result: binds
GST
  binding result: no binding

B2: DBE MUT probe (dsDNA)
DNA 1: CTCACCGCCGCCCATGAAGGGGTGGAGCCTGCCTG
DNA 2: CAGGCAGGCTCCACCCCTTCATGGGCGGCGGTGAG
GST-YY1 [2]
  binding result: no binding
